Measured values published in the supplement of paper PMC9876800.

Test system: peptide library, one residue held at a place counted from the S/T acceptor
Experiment: relative phosphorylation of the sub-library (ratio to the mean residue at this position); higher = residue favoured
Details: human
Outline: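 Spots on streptavidin membranes were phosphorimaged and quantified by densitometry to measure phosphorylation of biotinylated degenerate peptide sub-libraries by purified recombinant kinases, human or orthologue constructs. The reactions ran in 384-well plates for 90 min under kinase-specific conditions, with peptides at 50 μM and 50 μM ATP spiked with γ-32P-ATP. Relative sub-library phosphorylation is the ratio to the mean residue at that position.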

Chain of RIPK4, construct: aa1-300 (P57078 1-300, looked up): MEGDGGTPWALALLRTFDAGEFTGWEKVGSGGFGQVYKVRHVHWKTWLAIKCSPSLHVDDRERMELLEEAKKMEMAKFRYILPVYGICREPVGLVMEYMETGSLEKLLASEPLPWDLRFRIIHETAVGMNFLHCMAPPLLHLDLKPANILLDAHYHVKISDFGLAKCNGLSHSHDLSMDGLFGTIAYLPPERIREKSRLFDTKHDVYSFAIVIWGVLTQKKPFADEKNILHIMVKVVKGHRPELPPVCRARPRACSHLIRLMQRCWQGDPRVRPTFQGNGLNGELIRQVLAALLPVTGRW

RIPK4, construct: aa1-300 (from UniProt P57078)
relative phosphorylation
Details	at +1	at +2	at +3	at +4	at -1	at -2	at -3	at -4	at -5
A fixed	0.786	0.77	0.723	0.883	0.722	0.944	1.01	0.988	1.04
D fixed	0.444	0.547	0.572	0.75	1.76	1.53	1.02	1.45	1.43
E fixed	0.458	0.509	0.485	0.618	0.809	1.36	0.853	0.96	0.926
F fixed	1.86	1.04	1.37	1.16	0.6	0.863	0.994	0.822	1.04
G fixed	1.04	0.738	0.909	0.918	0.585	1.33	0.969	1.07	0.944
H fixed	0.776	1.18	0.859	1.07	1.48	1.37	1.14	1.04	1.07
I fixed	1.77	0.843	1.78	1.05	0.841	0.635	0.848	0.861	0.876
K fixed	0.691	1.66	0.792	1.25	1.63	0.64	0.919	0.9	1.09
L fixed	1.25	0.978	1.5	1.01	0.858	0.628	0.941	0.819	0.926
M fixed	1.71	1.11	1.04	0.831	0.815	0.789	0.996	0.91	0.909
N fixed	0.665	0.943	0.725	0.726	1.52	1.24	0.837	1.26	0.941
P fixed	0.376	0.62	0.706	1.32	0.461	0.502	1.11	0.844	0.922
Q fixed	1.19	0.924	0.779	0.802	1.02	0.898	0.976	0.888	0.856
R fixed	1.11	2.28	0.932	1.29	1.33	0.986	1.43	0.936	1.03
V fixed	1.26	0.815	1.09	0.798	1.01	0.618	0.723	0.874	0.866
W fixed	0.781	0.988	1.45	1.41	0.59	1.06	1.24	1.39	1.24
Y fixed	0.836	1.07	1.3	1.13	0.963	1.6	0.998	0.977	0.898
pThr fixed	0.839	0.707	0.778	0.887	1.03	1.04	1.07	1.17	1.23
pTyr fixed	0.524	0.726	0.725	0.802	0.897	0.817	0.967	0.967	1.09

MAP3K5, construct: aa659-951 (from UniProt Q99683)
relative phosphorylation
Details	at +1	at +2	at +3	at +4	at -1	at -2	at -3	at -4	at -5
A fixed	0.385	0.72	0.897	0.901	0.825	1.66	1.44	1.09	1.01
D fixed	0.255	0.881	0.707	0.815	0.699	0.504	0.689	0.908	0.899
E fixed	0.344	0.473	0.652	0.812	0.685	0.471	0.738	0.906	0.815
F fixed	2	1.32	1.22	0.964	1.08	0.77	0.826	1.04	1.17
G fixed	0.324	0.521	0.951	0.926	1.58	1.12	0.979	1.08	1.28
H fixed	1.1	1.06	1.04	1.12	1.06	0.985	1.24	1.02	1.19
I fixed	2.04	0.648	1.01	0.717	0.507	1.12	0.905	0.897	0.75
K fixed	0.375	1.08	1.04	1.88	1.13	0.61	1.02	0.913	1.13
L fixed	1.33	0.806	1.03	0.943	0.993	1.12	1.01	0.827	0.747
M fixed	0.894	0.812	1.06	0.877	1.06	1.17	0.894	1.04	0.88
N fixed	0.382	0.615	0.793	0.743	1.04	1.36	0.989	0.807	0.792
P fixed	0.352	0.543	1.03	1.02	1.07	1.22	1.36	1.22	1.41
Q fixed	0.498	0.64	0.806	0.89	0.775	0.987	1	1.01	0.919
R fixed	0.401	1.34	1.31	1.5	1.6	0.941	1.04	0.965	1.08
V fixed	1.78	0.645	1.01	0.723	0.54	1.09	0.835	1.12	0.836
W fixed	1.97	1.32	1.14	1.33	0.981	0.777	1.12	1.08	0.996
Y fixed	2.56	3.57	1.29	0.846	1.37	1.09	0.904	1.07	1.09
pThr fixed	0.556	0.528	0.673	0.597	0.672	0.847	0.914	0.985	1
pTyr fixed	0.623	0.518	0.863	0.704	1.47	0.793	0.884	1.04	1.24
